Measured values as given in the supplement of paper PMC10724198.
± gives the standard deviation of the averaged measurements.

Tested on: Saccharomyces cerevisiae
Assay: protein stability index of tFT-peptide fusion (C-terminal peptide) (PSI (0-1 scale)); higher = more stable (slower turnover)
Conditions: genetic background: wild type; temperature: 30 C
Protocol: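 Multiplexed protein stability (MPS) profiling in S. cerevisiae. Random 12-aa peptides (tFT-X12 library) are fused to the C-terminus of a sfGFP-mCherry tandem fluorescent timer, after mCherry and a GGGS linker. Cells are FACS-sorted into 8 mCherry/sfGFP bins and deep-sequenced. The protein stability index (PSI) is the read-weighted bin average, scaled from 0 (unstable) to 1 (stable). Only peptides with >10 reads are reported; cells were grown at 30 °C in SC-His with glucose.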
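Note: PSI is a weighted mean of sequencing reads over stability bins, variants kept only with over 10 reads, mCherry proximal and sfGFP distal, peptide attached via GGGS linker.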

Sequence	protein stability index
VGGGWGGGVVLV	0.696 ± 0.0071
ERYLCVGIAHGP	0.706 ± 0.02
SFILRRISSAIS	0.645 ± 0.014
PPPPPRPFLPPP	0.654 ± 0.058
LPLHAPPPHRHP	0.683 ± 0.013
DSTWGLGLFSVP	0.64 ± 0.033
LFPSVCSTSSFS	0.676 ± 0.034
PLPTSRKSFGLV	0.665 ± 0.06
PGPPPPPPALLP	0.658 ± 0.056
ELKRVCVHRTER	0.7 ± 0.025
TSCPPPLAPSYD	0.6909 ± 0.0045
DLSSFGRLGCQG	0.871 ± 0.037
LTPCPHATPEPP	0.615 ± 0.026
PPSRTPFLPPFR	0.691 ± 0.032
RGGSVDCRGNPL	0.656 ± 0.013
PPPPPFLPPTPP	0.622 ± 0.041
LPRPPPPSPPPP	0.7 ± 0.042
RYRPSPPPPPPH	0.762 ± 0.054
FSLYSFSSSFSF	0.677 ± 0.033
LWGGGVGGVRGV	0.641 ± 0.027
PHAERASPDGLS	0.664 ± 0.063
GGTRSDGYTQSR	0.707 ± 0.017
GLKVVENWIECA	0.555 ± 0.044
DWWFGQVYLSKE	0.705 ± 0.011
LEVAGVLCSRVC	0.56 ± 0.016

Sequence	protein stability index
WCGSSGLFLVVW	0.594 ± 0.017
VRSVSCPCCAHF	0.7058 ± 0.0056
GPGVFGGFRTEK	0.648 ± 0.056
PPSPAPSPPRPL	0.702 ± 0.021
DKGIHKREKFFT	0.734 ± 0.0054
DGGGGGRAPRVR	0.726 ± 0.1
PRGALMKGYKPG	0.663 ± 0.1
ACRLWWRRGGEG	0.61 ± 0.045
PSAPPPSPLGRT	0.738 ± 0.059
EGDGQGGGGQGG	0.695 ± 0.011
VACFLCTPKWFE	0.69 ± 0.057
PHPGVPPTFLSL	0.657 ± 0.11
PSPRPSPRPSPR	0.692 ± 0.062
RGGGGGGDCVGA	0.727 ± 0.018
VLGWRLLPTAGI	0.703 ± 0.062
RTDALKVVADMI	0.682 ± 0.034
VYNLHRGLFLSL	0.512 ± 0.0097
PLPPPLPPPGPH	0.731 ± 0.053
LYSSMFCGTFLL	0.605 ± 0.048
FWGGGRGLVGEV	0.664 ± 0.024
STAELSNSLIGR	0.703 ± 0.033
IRPPPPPPPRAA	0.59 ± 0.07
LLNNTLENQNTL	0.6645 ± 0.0041
LPHYLAFPFFMI	0.499 ± 0.08
PGGLHHGCSTPA	0.724 ± 0.0087

Sequence	protein stability index
PSILRGVLSAPK	0.695 ± 0.04
RKQRERGKCGKR	0.726 ± 0.031
HIGDLRDSCFIS	0.693 ± 0.031
GGEVPFRLCRLW	0.6914 ± 0.0019
WVKGRVKIEGGQ	0.68 ± 0.042
SVSCVSRTVAPS	0.684 ± 0.027
LRFRCGNSRILS	0.724 ± 0.044
LACCGGLVTWVL	0.6891 ± 0.0046
APDRGWAEGQCS	0.727 ± 0.018
DRRTLSLDLCGS	0.644 ± 0.045
GGGRRVCGVLAV	0.619 ± 0.013
KAGCDYYHRRSF	0.675 ± 0.061
EVKKTFCFSKDI	0.672 ± 0.011
CRLILLVCNGAG	0.521 ± 0.027
KLGRWGARGSGR	0.655 ± 0.021
GGDGGGERGEGK	0.701 ± 0.027
NLEVNFKNIYVK	0.679 ± 0.038
VNELYDNETTYV	0.734 ± 0.035
VFAGLHSLCFFF	0.641 ± 0.023
RNIQKKKKIQHI	0.514 ± 0.047
RVTRPSARLLSP	0.639 ± 0.084
LEYRSCDFIDRS	0.625 ± 0.057
APVQLDNKVVLM	0.699 ± 0.04
PHPATLPPPAPT	0.699 ± 0.032
CDCIAFISRSFS	0.675 ± 0.039

Sequence	protein stability index
TLFSVGSDAMIV	0.708 ± 0.041
SYVYMIQRANAV	0.5609 ± 0.004
TPKTTGRPCDRT	0.69 ± 0.0098
APPPRSPPPTPH	0.696 ± 0.012
KKIKKKKNKKQE	0.735 ± 0.075
KGYEGGRRCELE	0.696 ± 0.039
GLGGRVWSDMGG	0.745 ± 0.11
DSPLSHPPSPAP	0.6235 ± 0.0019
FAFSDFHLVVFF	0.684 ± 0.011
PNPEKPPGAPGQ	0.63 ± 0.087
VHFSSSCDYLIV	0.653 ± 0.081
SLLPRLTPHSPI	0.75 ± 0.051
RPIPMEGAYYLV	0.693 ± 0.027
HRLMDTNFSRSP	0.743 ± 0.061
ATILILHTSPQF	0.655 ± 0.041
CIRGFQVRGYFK	0.791 ± 0.19
PLSPLSLSPVAP	0.62 ± 0.026
WHGSVPHLWFPP	0.59 ± 0.026
GGGVEAIEVSQG	0.678 ± 0.041
PLPPLPPPLPAP	0.705 ± 0.052
VFLGRWKFFFWG	0.619 ± 0.023
ETGTRELIRQWV	0.718 ± 0.02
VVLGESSGGVGV	0.643 ± 0.097
ECVPEVACCPWR	0.729 ± 0.03
CSEHFLIDTYPA	0.679 ± 0.05

Sequence	protein stability index
GRFVTRAWARSW	0.639 ± 0.018
SFISPFFCTRPV	0.638 ± 0.012
RCSLLVVPHSPP	0.717 ± 0.04
PLHLYPHPPTHS	0.698 ± 0.078
PKRTHDPAPKTT	0.70897 ± 0.00058
CCGLYLGAGCAY	0.674 ± 0.017
FSFVPRHGVSFR	0.6349 ± 0.0059
PFGTFFFPSFLL	0.683 ± 0.0032
LWVGVVGGVRGV	0.598 ± 0.1
IACLDVLRRALF	0.627 ± 0.016
GVGWPGVGAGGG	0.635 ± 0.05
SPLPRLPPGPLP	0.68 ± 0.03
GGGWRLIVLGWW	0.585 ± 0.087
SLSCDITRFVEY	0.712 ± 0.19
RIERIYEIKKNR	0.68086 ± 7.2e-05
GANSILRDIEFL	0.69 ± 0.05
DRVRGLCIPNGP	0.681 ± 0.043
GSWRSFHVWYNS	0.571 ± 0.042
QKKKKNKKQKTE	0.599 ± 0.021
PHSPLPAHPPCR	0.745 ± 0.14
PRPAQDAEPIQP	0.646 ± 0.098
GSRSGPARTTGR	0.668 ± 0.024
EVPGALISLHFY	0.654 ± 0.038
PIRPQSSVSLKQ	0.64958 ± 0.00064
SLFALPLPPPAQ	0.695 ± 0.025

Sequence	protein stability index
LSAMVSYTRAPF	0.67811 ± 0.00065
VTEGGGGGKGRG	0.6917 ± 0.0064
PTSPHPPPCSPP	0.724 ± 0.22
VWLGGRECVVRG	0.597 ± 0.02
SNWGLYGCRLYP	0.759 ± 0.073
LYHPRLAPLPRT	0.627 ± 0.042
CRCTKVVVFGYP	0.667 ± 0.022
KNIIEKKIKKRK	0.711 ± 0.0049
RRLLLAGTQLYV	0.598 ± 0.073
VWASVRRIFRVG	0.554 ± 0.0058
RSGSGGVAGRRE	0.692 ± 0.022
PKSGRAVMQGEG	0.631 ± 0.071
GGLVGACTRLSG	0.657 ± 0.035
SSRPPLPPPRIH	0.618 ± 0.017
AGGGGGRGSAGA	0.711 ± 0.011
DVQISSGRGVCS	0.672 ± 0.054
RRSTIHSRLFGA	0.6786 ± 0.0041
ANHRPCIPPPPR	0.657 ± 0.073
SGRMAIYVFGVV	0.579 ± 0.01
GGGWGGGGGVWG	0.686 ± 0.047
EGEERGEGQVRA	0.675 ± 0.0068
